Source: article PMC3715429

Biological target: EphrinA2 (EphA2) receptor tyrosine kinase (human (endogenous in HFF)) (UniProt P29317)
Assay: co-IP; lysates of c-Cbl siRNA-transfected HFF cells infected with KSHV for 5 min; IP with anti-EphA2 antibody, Western blot for clathrin; compared with control siRNA cells

Work on “clathrin heavy chain (from UniProt Q00610 1-1675) (natural protein)” yielded a fold reduction of the co-IP in c-Cbl siRNA cells against control siRNA cells of 8 fold.
